Reference: US20120009179A1 (Kyowa Kirin, published 2012)
Residue numbers refer to the chain shown, from its start.

B1: anti-Aβ oligomer humanized antibody HV0LV2a (antibody, V domains shown)
VH: QVQLVQSGAEVKKPGASVKVSCKASGYTFTSYWMHWVRQAPGQGLEWMGEINPRNGGTNNNENFKRRVTITADTSTSTAYMELSSLRSEDTAVYYCARDGNYDPFAYWGQGTLVTVSS
VL: DIVMTQSPLSLPVTPGEPASISCRSSQSLVHSNGNTYLHWYLQKPGQSPKLLIYKVSNRFSGVPDRFSGSGSGTDFTLKISRVEAEDVGVYFCSQSTHVPPYTFGQGTKLEIK
notes: also called 6E4HV0 + LV2a
B2: anti-Aβ oligomer humanized antibody HV12LV4 (antibody, V domains shown)
VH: QVQLVQSGAEVVKPGASVKLSCKASGYTFTSYWMHWVKLAPGQGFEWIGEINPRNGGTNNNENFKRKATLTVDKSTSTAYMELSSLRSEDTAVYYCTRDGNYDPFAYWGQGTLVTVSS
VL: B1 VL with I2V, P15L
B3: anti-Aβ oligomer humanized antibody HV0LV0 (antibody, V domains shown)
VH: B1 VH
VL: B1 VL with K50Q, F92Y
notes: Whole humanized antibody expressed from vector pKANTEX93 (WO 97/10354) with human constant regions; Produced in FUT8 knockout CHO/DG44 cells (no core fucose); also called 6E4HV0 + 6E4LV0
B4: anti-Aβ oligomer humanized antibody HV0LV4 (antibody, V domains shown)
VH: B1 VH
VL: B1 VL with I2V, P15L
notes: also called 6E4HV0 + LV4

Molecular target: T1, Aβ monomers prepared from Biotin-beta-Amyloid, Human 1-40 (human, UniProt P05067 672-711, Biotin (position not stated; printed as "Biotin-beta-Amyloid, Human 1-40"))
T1 construct: domain: beta-Amyloid, Human 1-40; Captured on an SA sensor chip through biotin; also called amyloid β protein monomer
T1 sequence (P05067 672-711 limits assumed): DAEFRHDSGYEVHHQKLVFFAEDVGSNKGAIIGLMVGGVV
Assay: SPR (Biacore T100), biotin-Aβ1-40 monomers captured on SA chip, antibody injected
Description: In order to analyze the binding activity of the respective anti-Aβ oligomer humanized antibodies (HV0LV0, HV0LV2a, HV0LV4 and HV12LV4) against Aβ monomers, the binding activity was measured in the same manner as in (1) of this Example. In addition, the binding activity of anti-Aβ antibody 6E10 (manufactured by CONVANCE) was measured as a control antibody.
The Aβ monomers obtained in (2) of Example (2) were immobilized to the SA sensor chip (manufactured by GE Healthcare Bio-sciences) by the biotin capturing method. Onto the chip to which the Aβ monomers were immobilized, samples for measurement, which were prepared to have 5 levels of density by diluting from 30 μg/mL by doubling dilution in a stepwise manner (6E10, HV0LV0, HV0LV2a, HV0LV4 and HV12LV4), were sequentially injected and measured in the order from the lower density based on the automatic program of the multi-kinetics mode.

Binder	binding result
B1	no binding (tested: 30 µg/mL highest of 5 two-fold dilutions)
B2	no binding (tested: 30 µg/mL highest of 5 two-fold dilutions)
B3	no binding (tested: 30 µg/mL highest of 5 two-fold dilutions)
B4	no binding (tested: 30 µg/mL highest of 5 two-fold dilutions)

Molecular target: T2, Aβ oligomers prepared from Amyloid β-protein, Human 1-42 peptide (human, UniProt P05067 672-713)
T2 construct: domain: Amyloid β-protein, Human 1-42 peptide; Non-covalent oligomer of synthetic Aβ1-42; Immobilized on a CM5 chip by amine coupling; also called amyloid β protein oligomer
T2 sequence (P05067 672-713 limits assumed): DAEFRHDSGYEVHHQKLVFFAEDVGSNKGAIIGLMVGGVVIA
Assay: SPR (Biacore T100), Aβ oligomers amine-coupled on CM5 chip, antibody injected, Bivalent Analyte model (ka1)
Description: (§1) All the following operations were performed using Biocore T100 (manufactured by GE Healthcare Bio-sciences). The Aβ oligomers obtained in (1) of Example 2 were immobilized to the CM5 sensor chip (GE Healthcare Bio-sciences) using the amine coupling method.
(§2) Onto the chip to which the Aβ oligomers were immobilized for measurement samples prepared to have 8 levels of density by diluting from 30 μg/mL by doubling dilution in a stepwise manner (HV0LV0, HV0LV2a, HV0LV4 and HV12LV4) was sequentially injected and measured in the order from the lower density based on the automatic program of the multi-kinetics.
(§3) Using the analysis software attached to the device, Biacore T100 Evaluation software (manufactured by Biacore Life Science), analysis was carried out with the Bivalent Analyte model to calculate the binding rate constant ka and the dissociation rate constant kd of each of the antibody against Aβ oligomers.

kon [M⁻¹ s⁻¹]	Binder
6400	B1
2700	B2
17000	B3
7000	B4

Molecular target: T2, Aβ oligomers prepared from Amyloid …
Assay: SPR (Biacore T100), Aβ oligomers amine-coupled on CM5 chip, antibody injected, Bivalent Analyte model (kd1)
Description: as §1, §2, §3

koff [s⁻¹]	Binder
0.00039	B1
0.00081	B2
0.00069	B3
0.0005	B4

Molecular target: T2, Aβ oligomers prepared from Amyloid …
Assay: SPR (Biacore T100), Aβ oligomers amine-coupled on CM5 chip, antibody injected, Bivalent Analyte model (kd1/ka1)
Description: as §1, §2, §3

Kd [nM]	Binder
61	B1
300	B2
40	B3
71	B4
